Molecular target: GST-tagged AKT1 (UniProt P31749 1-480)
Assay: pull-down

Sequence of GST-tagged AKT1 (P31749 whole entry): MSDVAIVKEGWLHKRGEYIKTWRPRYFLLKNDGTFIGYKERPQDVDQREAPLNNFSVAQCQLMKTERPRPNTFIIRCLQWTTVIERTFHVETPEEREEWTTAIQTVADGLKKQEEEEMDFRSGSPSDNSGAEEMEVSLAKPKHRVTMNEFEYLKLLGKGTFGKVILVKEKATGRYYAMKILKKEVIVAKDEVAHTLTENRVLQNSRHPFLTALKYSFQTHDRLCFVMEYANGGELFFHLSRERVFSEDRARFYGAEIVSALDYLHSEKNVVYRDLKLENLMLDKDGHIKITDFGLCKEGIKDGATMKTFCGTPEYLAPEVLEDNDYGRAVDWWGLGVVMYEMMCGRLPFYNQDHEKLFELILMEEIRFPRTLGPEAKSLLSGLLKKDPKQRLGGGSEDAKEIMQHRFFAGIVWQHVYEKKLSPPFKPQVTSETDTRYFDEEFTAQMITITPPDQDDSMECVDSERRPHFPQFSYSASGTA

B1: His-tagged SFN (natural protein, UniProt P31947 1-248, looked up)
chain: MERASLIQKAKLAEQAERYEDMAAFMKGAVEKGEELSCEERNLLSVAYKNVVGGQRAAWRVLSSIEQKSNEEGSEEKGPEVREYREKVETELQGVCDTVLGLLDSHLIKEAGDAESRVFYLKMKGDYYRYLAEVATGDDKKRIIDSARSAYQEAMDISKKEMPPTNPIRLGLALNFSVFHYEIANSPEEAISLAKTTFDEAMADLHTLSEDSYKDSTLIMQLLRDNLTLWTADNAGEEGGEAPQEPQS
B1: binds.

— article PMC11254524 (Cell Insight, 2024)
